We go through five molecules from patent US20150299322A1 (Dana-Farber, published 2015).

Sequences and labels used below:
B1: recombinant mouse BMP-2 (GIBCO) (ligand, UniProt P21274 281-394, looked up)
chain: QAKHKQRKRLKSSCKRHPLYVDFSDVGWNDWIVAPPGYHAFYCHGECPFPLADHLNSTNHAIVQTLVNSVNSKIPKACCVPTELSAISMLYLDENEKVVLKNYQDMVVEGCGCR
notes: Coated on ELISA plates at 1 ug/ml; also called mBMP-2; BMP-2/4
B2: recombinant mouse BMP-4 (R&D) (ligand, UniProt P21275 293-408, looked up)
chain: SPKHHPQRSRKKNKNCRRHSLYVDFSDVGWNDWIVAPPGYQAFYCHGDCPFPLADHLNSTNHAIVQTLVNSVNSSIPKACCVPTELSAISMLYLDEYDKVVLKNYQEMVVEGCGCR
notes: Coated on ELISA plates at 1 ug/ml; also called mBMP-4; BMP-2/4
B3: hPD-L2-mIgG2a fusion protein (Fc fusion)
chain: LFTVTVPKELYIIEHGSNVTLECNFDTGSHVNLGAITASLQKVENDTSPHRERATLLEEQLPLGKASFHIPQVQVRDEGQYQCIIIYGVAWDYKYLTLKVKASYRKINTHILKVPETDEVELTCQATGYPLAEVSWPNVSVPANTSHSRTPEGLYQVTSVLRLKPPPGRNFSCVFWNTHVRELTLASIDLQSQMEPRTHPT
notes: not shown: mouse IgG2a part
B4: mouse PD-1 (mPD-1) expressed on transfected 300 cells (receptor, UniProt Q02242 25-288, looked up)
chain: LEVPNGPWRSLTFYPAWLTVSEGANATFTCSLSNWSEDLMLNWNRLSPSNQTEKQAAFCNGLSQPVQDARFQIIQLPNRHDFHMNILDTRRNDSGIYLCGAISLHPKAKIEESPGAELVVTERILETSTRYPSPSPKPEGRFQGMVIGIMSALVGIPVLLLLAWALAVFCSTSMSEARGAGSKDDTLKEEPSAAPVPSVAYEELDFQGREKTPELPTACVHTEYATIVFTEGLGASAMGRRGSADGLQGPRPPRHEDGHCSWPL
notes: whole, on cells; also called 300-mPD-1 cells; mPD-1 cells
B5: mouse PD-L2 (mPD-L2) expressed on transfected 300 cells (ligand, UniProt Q9WUL5 20-247, looked up)
chain: LFTVTAPKEVYTVDVGSSVSLECDFDRRECTELEGIRASLQKVENDTSLQSERATLLEEQLPLGKALFHIPSVQVRDSGQYRCLVICGAAWDYKYLTVKVKASYMRIDTRILEVPGTGEVQLTCQARGYPLAEVSWQNVSVPANTSHIRTPEGLYQVTSVLRLKPQPSRNFSCMFWNAHMKELTSAIIDPLSRMEPKVPRTWPLHVFIPACTIALIFLAIVIIQRKRI
notes: whole, on cells; also called 300-mPD-L2 cells; mPD-L2 transfected cells

For experiment [1], the target named is T1, mPD-L2-Ig fusion protein (construct not told at the result) (mouse, UniProt Q9WUL5 20-221).
T1 construct: extracellular domain; not shown: Ig part: the methods name mPD-L2-hIgG1/IgA, mPD-L2-mIgG2a/IgA and mPD-L2-hIgG (R&D)
T1 sequence (looked up): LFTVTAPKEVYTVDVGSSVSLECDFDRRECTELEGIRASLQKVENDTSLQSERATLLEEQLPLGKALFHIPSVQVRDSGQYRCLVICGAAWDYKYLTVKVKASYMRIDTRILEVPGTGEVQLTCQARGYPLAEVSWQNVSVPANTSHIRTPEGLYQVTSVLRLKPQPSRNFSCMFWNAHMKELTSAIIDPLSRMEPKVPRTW
Briefly: ELISA, coated BMP-2, PD-L2-Ig added without RGMb. Here is the method:
(§1) To determine if RGMb binds PD-L2 and BMP-2/4 simultaneously, 96-well ELISA plates were coated with BMP-2/4 as above. mPD-L2-hIgG1/IgA, mPD-L2-hIgG (R&D), mPD-L1-hIgG (R&D) or control-Ig fusion proteins at 10 μg/ml were preincubated with 10 μg/ml mRGMb-HIS (R&D) or buffer alone for 15 min. at room temperature (RT), then added to the plates and incubated for 1h at 37° C. Alternatively, 10 μg/ml mRGMb-HIS (R&D) or buffer alone was added first to the plates and incubated for 1h at 37° C. After wash, mPD-L2-Ig or control-Ig fusion proteins were added and incubated for 1h at 37° C. Fab₂ goat anti-hIgG-HRP (Jackson ImmunoResearch Laboratories) at 1:10000 was used for detection.
(§2) To test if RGMb can bind both PD-L2 and BMP at the same time, an ELISA was performed to analyze the binding capacity of PD-L2-Ig fusion protein to immobilized BMP-2/4 in the presence or absence of RGMb. PD-L2 could not directly bind to BMP-2/4, but in the presence of RGMb could form a complex with BMP when RGMb and PD-L2-Ig were added simultaneously (FIG. 4A-4B) or sequentially to BMP-2/4.
A general note: An ELISA detects its analyte on a solid surface through an enzyme-linked reagent.

In experiment [2] the target is T2, recombinant mRGMb-HIS (R&D) (mouse, UniProt Q7TQ33 49-415, limits assumed).
T2 construct: Bought from R&D; not shown: HIS tag
T2 sequence (looked up): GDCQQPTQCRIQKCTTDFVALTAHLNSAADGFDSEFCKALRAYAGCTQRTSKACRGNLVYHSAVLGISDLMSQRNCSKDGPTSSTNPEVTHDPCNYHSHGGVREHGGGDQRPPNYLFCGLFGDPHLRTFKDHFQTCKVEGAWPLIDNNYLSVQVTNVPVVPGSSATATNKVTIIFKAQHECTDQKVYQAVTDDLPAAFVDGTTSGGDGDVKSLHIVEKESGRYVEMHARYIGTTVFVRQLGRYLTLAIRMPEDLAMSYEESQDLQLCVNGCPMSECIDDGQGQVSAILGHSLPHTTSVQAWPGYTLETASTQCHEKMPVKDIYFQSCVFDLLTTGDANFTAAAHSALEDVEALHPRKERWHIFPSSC
Description: ELISA, coated BMP-2, mRGMb-HIS bridging PD-L2-Ig. As to the method: as §1, §2

Experiment [3] addresses T1, mPD-L2-Ig fusion protein (construct not …). Briefly: ELISA, coated BMP-4, PD-L2-Ig added without RGMb. Here is the method:
as §1, §2

The target of experiment [4] is T2, recombinant mRGMb-HIS (R&D). Briefly: ELISA, coated BMP-4, mRGMb-HIS bridging PD-L2-Ig. Here is the method: as §1, §2
The target of experiment [5] is T3, recombinant hRGMb-HIS (R&D) (human, UniProt Q6NW40 46-413).
T3 construct: Bought from R&D; not shown: HIS tag
T3 sequence: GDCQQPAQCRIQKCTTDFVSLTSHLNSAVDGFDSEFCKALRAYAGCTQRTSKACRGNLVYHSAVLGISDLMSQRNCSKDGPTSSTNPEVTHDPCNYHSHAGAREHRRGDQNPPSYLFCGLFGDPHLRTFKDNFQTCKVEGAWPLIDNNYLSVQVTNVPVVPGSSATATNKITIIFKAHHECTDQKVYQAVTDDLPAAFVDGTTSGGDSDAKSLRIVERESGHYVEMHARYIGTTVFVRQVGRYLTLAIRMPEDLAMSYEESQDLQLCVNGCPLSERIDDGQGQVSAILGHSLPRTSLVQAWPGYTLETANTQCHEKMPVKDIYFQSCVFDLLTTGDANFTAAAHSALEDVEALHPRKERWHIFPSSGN
Description: ELISA, coated hRGMb-HIS, PD-L2-Ig in solution. Here is the method: (§3) To examine RGMa/RGMb/RGMc and PD-L2 interaction, 96-well ELISA plates were coated with 2 or 5 μg/ml of recombinant mRGMa-HIS, mRGMb-HIS, mRGMc-HIS, or hRGMb-HIS (R&D). Then, serial dilutions of mPD-L2-hIgG1/IgA, mPD-L2-mIgG2a/IgA, hPD-L2-mIgG2a or control-Ig fusion proteins were added and incubated for 1h at 37° C. Fab₂ goat anti-hIgG-HRP (Jackson ImmunoResearch Laboratories) or rat anti-mIgG2a-HRP (BD Biosciences) at 1:1000 or 1:10000 were used for detection.

Experiment [6] concerns the target T2, recombinant mRGMb-HIS (R&D). Description: ELISA, coated mRGMb-HIS, PD-L2-Ig in solution. Here is the method:
as §3

The target of experiment [7] is T4, mouse PD-L1 (mPD-L1) expressed on transfected 300 cells (mouse, UniProt Q9EP73 19-290).
T4 construct: whole, on cells; also called 300-mPDL 1; mPD-L1 cells
Briefly: cell conjugation assay, flow cytometry. Here is the method:
(§4) An assay for receptor-ligand binding was developed based on cell to cell binding as determined by flow cytometry. One transfected cell type was labelled with the red dye PKH26 (Sigma) and the other transfected cell with the green dye PKH67 (Sigma) according to the manufacturer's instructions. Red dye-labelled and green dye-labelled cells ([…] each cell type) were incubated in 200 μl of HBSS buffer without calcium and magnesium (GIBCO) supplemented with 10% heat-inactivated FBS (Invitrogen), 15 μg/ml gentamicin (Invitrogen) and 1% HEPES (Invitrogen) in a round bottom 96-well plate for 45 min at 37° C. When the cell conjugation assay was used to test the blocking capacity of antibodies, one transfected cell type was pre-incubated 30 min at RT with antibodies before adding the other type of transfected cells. Conjugate formation was analyzed immediately by flow cytometry using the PE channel for the red dye and the FITC channel for the green dye. The automated plate harvester of the FACSCanto (BD Biosciences) was used for uniformity of cell processing. The instrument settings were as follows, throughput mode: standard, loader settings: sample flow rate at 0.5 μl/second, sample volume and mixing volume at 100 μl, mixing speed at 50 μl/second, number of mixes at 2, and wash volume at 400 μl.
(§5) To test the RGMb:PD-L2 interaction under more physiologic conditions, a cell conjugation assay was used where one transfected cell type was labeled with a red dye and the other transfected cell type with a green dye. The binding of the two cell types was assessed by flow cytometry and indicated by double positive events (yellow dots). […] FIGS. 1L, 1N, 1P, and 1R show only the dot plots without corresponding FSC-SSC plots. As expected, mRGMb cells bound to mPD-L2 cells (FIG. 1K), but not mPD-L1 cells (FIG. 1L). As positive controls, mPD-1 cells bound to both mPD-L2 and mPD-L1 cells (FIGS. 1M-1N). Negative control binding assays had very few conjugates (<0.3%) (FIGS. 1O-1R).
(In general: A flow cytometer gives signals particle by particle.)

The target in experiment [8] is T5, mouse RGMb (mRGMb) expressed on transfected cells (mouse, UniProt Q7TQ33 49-415).
T5 construct: whole, on cells; Also used for mRGMb in cell lysates (Western blot); also called DRAGON; 300-mRGMb cells
T5 sequence (looked up): T2 sequence (looked up)
Description: cell conjugation assay, flow cytometry. As to the method:
as §4, §5

The target of experiment [9] is B4. Briefly: cell conjugation assay, flow cytometry. Here is the method:
as §4, §5

In experiment [10] the target is T6, mRGMb-Ig fusion protein (mRGMb-mIgG2a) (mouse, UniProt Q7TQ33 49-415, limits assumed).
T6 construct: extracellular domain; Purified from CHO cell culture supernatants
T6 sequence (looked up): T2 sequence (looked up)
Description: flow cytometry on mPD-L2 transfected 300 cells.

T4 sequence (Q9EP73 19-290): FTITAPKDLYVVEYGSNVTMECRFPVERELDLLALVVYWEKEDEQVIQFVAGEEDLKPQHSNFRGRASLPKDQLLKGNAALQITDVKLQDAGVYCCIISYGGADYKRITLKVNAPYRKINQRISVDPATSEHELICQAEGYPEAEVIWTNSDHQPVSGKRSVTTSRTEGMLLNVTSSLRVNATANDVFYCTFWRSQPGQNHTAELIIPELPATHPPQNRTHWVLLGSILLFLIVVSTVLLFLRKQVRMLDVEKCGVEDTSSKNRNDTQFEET

With B1, the binding result in experiment [1] was “no binding (tested: 10 ug/ml)”; in [2], “binds”.

As for B2, the binding result in experiment [3] is “no binding (tested: 10 ug/ml)”; in experiment [4], “binds”.

With B3, the binding result in [5] and in [6] was “binds” in each case.

For B4, the binding result in [7] was “binds”.

With B5, the binding result in experiment [8], in [9] and in [10] was “binds” in each case.
